In patent JP2017014112A (dated 2017):

How the values were obtained:
[1] = molecular target: T1, サバイビンとカルモジュリンとの融合タンパク質 (catalogue no. SUR0801, ATGen) (Homo sapiens (Human), UniProt O15392 1-142, fluorescein-labelled when used as prey in the pull-down); test: SPR, Biacore X100, fusion captured through biotin-CBP on SA chip, VHH 6.25-100 nM as analyte, single cycle
T1 construct: Bought fusion protein; Fluorescein-labelled in the pull-down; unlabelled and captured through biotin-CBP on the SA chip in the Biacore run; also called 融合タンパク質200; survivin-calmodulin fusion protein
T1 sequence (O15392 whole entry, the tested form may be a part): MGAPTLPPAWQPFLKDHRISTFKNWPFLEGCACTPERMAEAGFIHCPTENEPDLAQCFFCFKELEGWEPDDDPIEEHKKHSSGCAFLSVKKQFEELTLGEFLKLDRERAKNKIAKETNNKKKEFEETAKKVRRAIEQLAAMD

[2] = molecular target: T2, サバイビン (antigen of the competitive ELISA) (UniProt O15392 1-142); test: competitive ELISA: fixed VHH equilibrated with varied survivin, free VHH caught on antigen-coated plate, anti-His detection
T2 construct: also called サバイビン1010; 抗原
T2 sequence (O15392 whole entry): as the sequence (O15392 whole entry, the tested form may be a part) above

[3] = molecular target: カルモジュリン (UniProt P0DP23 2-149); test: pull-down with bead-bound VHH, fluorescein-labelled prey, SDS-PAGE

Row | Binder | Kd [1] [nM] | Kd [2] [nM] | binding result [3]
1 | 精製したVHH抗体(R7-A), C-terminal His×6, secreted from Brevibacillus (VHH, Expressed with the Brevibacillus secretion system and purified on Ni Sepharose) VHH: EVQLVESGGGSVQAGGSLRLSCAASGVSNTDMIMIWFRQAPGKEREGVLAAIYKNSTYYADSVKGRFTISQDNAKNTVYLQMNSLKPEDTAIYYCAAIRAVIGRHIRPHIYWGQGTQVTVGG | 25.1 | 516 | –
2 | R7-AのDNA断片にコードされるVHH抗体 (cell-free translated, on the nucleic acid linker) (VHH, C-terminus covalently bound to the puromycin of the nucleic acid linker (linker carries biotin and fluorescein), Made in rabbit reticulocyte lysate and held on streptavidin magnetic beads through the linker for the pull-down; also called VHH抗体タンパク質120) VHH: EVQLVESGGGSVQAGGSLRLSCAASGVSNTDMIMIWFRQAPGKEREGVLAAIYKNSTYYADSVKGRFTISQDNAKNTVYLQMNSLKPEDTAIYYCAAIRAVIGRHIRPHIYWGQGTQVTVGG | – | – | no binding (tested: 200 nM)
3 | R7-BのDNA断片にコードされるVHH抗体 (VHH, C-terminus covalently bound to the puromycin of the nucleic acid linker (linker carries biotin and fluorescein), Cell-free translated, on the nucleic acid linker, as bait in the pull-down) VHH: EVQLVESGGGSVQAGGSLRLSCAASGIPIQDSVVLWFRQAPGKEREGVLAAKYRSPTYYADSVKGRFTISQDNAKNTVYLQMNSLKPEDTAIYYCAAIRAVIGRHIRPHIYWGQGTQVTVGG | – | – | no binding (tested: 200 nM alone; 500 nM in the protein mix)
4 | R7-DのDNA断片にコードされるVHH抗体 (VHH, C-terminus covalently bound to the puromycin of the nucleic acid linker (linker carries biotin and fluorescein), Cell-free translated, on the nucleic acid linker, as bait in the pull-down) VHH: EVQLVESGGGSVQAGGSLRLSCAASGVSNTDMIMIWFRQAPGKEREGVLAAIYKNSTYYADSVKGRFTISQDNAKNTVYLQMNSLKPEDTAIYYCAAIAFNGHNHPILTIYWGQGTQVTVGG | – | – | no binding (tested: 500 nM in the protein mix)
5 | R7-EのDNA断片にコードされるVHH抗体 (VHH, C-terminus covalently bound to the puromycin of the nucleic acid linker (linker carries biotin and fluorescein), Cell-free translated, on the nucleic acid linker, as bait in the pull-down) VHH: EVQLVESGGGSVQAGGSLRLSCAASGVSNTDMIMIWFRQAPGKEREGVLAAIYKNSTYYADSVKGRFTISQDNAKNTVYLQMNSLKPEDTAVYYCAAISAVIGRHIRPHIYWGQGTQVTVGG | – | – | no binding (tested: 500 nM in the protein mix)
